T1: EBOV GP (recombinant, full-length extracellular domain) (EBOV (Ebola Zaire), UniProt Q05320 33-650)
T1 chain: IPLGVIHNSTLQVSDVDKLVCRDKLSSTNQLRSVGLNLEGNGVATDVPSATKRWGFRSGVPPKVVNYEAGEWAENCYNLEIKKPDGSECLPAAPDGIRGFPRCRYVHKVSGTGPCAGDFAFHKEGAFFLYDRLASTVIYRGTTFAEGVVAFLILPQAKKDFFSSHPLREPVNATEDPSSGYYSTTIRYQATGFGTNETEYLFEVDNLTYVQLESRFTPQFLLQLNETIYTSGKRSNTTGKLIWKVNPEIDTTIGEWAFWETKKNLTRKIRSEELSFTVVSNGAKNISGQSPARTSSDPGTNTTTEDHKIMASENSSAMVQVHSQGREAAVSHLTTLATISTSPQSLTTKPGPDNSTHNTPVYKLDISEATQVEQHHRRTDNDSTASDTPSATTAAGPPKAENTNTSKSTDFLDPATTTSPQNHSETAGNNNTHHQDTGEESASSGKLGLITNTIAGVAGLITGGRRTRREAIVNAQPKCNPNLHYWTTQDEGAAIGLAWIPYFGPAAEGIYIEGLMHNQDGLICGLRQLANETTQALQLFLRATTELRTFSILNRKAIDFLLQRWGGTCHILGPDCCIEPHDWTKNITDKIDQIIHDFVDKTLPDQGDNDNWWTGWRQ

T2: EBOV sGP (EBOV (Ebola Zaire), UniProt P60170 33-324)
T2 chain: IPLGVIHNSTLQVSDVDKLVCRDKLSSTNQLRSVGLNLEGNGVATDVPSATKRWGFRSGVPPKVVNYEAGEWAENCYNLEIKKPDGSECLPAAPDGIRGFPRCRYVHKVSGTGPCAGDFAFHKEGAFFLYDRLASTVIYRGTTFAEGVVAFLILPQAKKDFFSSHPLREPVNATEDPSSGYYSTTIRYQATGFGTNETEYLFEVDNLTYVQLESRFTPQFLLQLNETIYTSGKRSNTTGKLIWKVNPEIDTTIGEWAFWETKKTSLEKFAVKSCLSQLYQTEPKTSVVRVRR

T3: SUDV GP (recombinant) (SUDV (Sudan ebolavirus), UniProt Q66814 33-650)
T3 chain: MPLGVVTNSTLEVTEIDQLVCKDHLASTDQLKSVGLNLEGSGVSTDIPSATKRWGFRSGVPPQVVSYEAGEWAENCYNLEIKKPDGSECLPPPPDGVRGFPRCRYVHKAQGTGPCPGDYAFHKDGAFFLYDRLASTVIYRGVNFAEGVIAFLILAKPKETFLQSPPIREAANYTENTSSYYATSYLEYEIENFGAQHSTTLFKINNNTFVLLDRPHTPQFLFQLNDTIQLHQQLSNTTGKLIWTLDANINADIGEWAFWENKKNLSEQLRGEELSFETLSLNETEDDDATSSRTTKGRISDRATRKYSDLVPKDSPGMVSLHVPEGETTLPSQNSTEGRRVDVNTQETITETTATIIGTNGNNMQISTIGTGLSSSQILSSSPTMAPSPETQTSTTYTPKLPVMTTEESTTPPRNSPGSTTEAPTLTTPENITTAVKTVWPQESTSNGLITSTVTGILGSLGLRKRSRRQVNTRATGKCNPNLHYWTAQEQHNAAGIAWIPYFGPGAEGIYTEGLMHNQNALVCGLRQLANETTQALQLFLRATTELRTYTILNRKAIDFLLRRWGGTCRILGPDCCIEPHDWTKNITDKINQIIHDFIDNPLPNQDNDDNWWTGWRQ

B1: 324 (antibody, V domains shown)
VH: QVQLVQSGAEVKKPGASVKVSCKTSGYTFTSFEIHWVRQGSGQGLEWMGRMNPKSGDTVSAQKFQGRVTLTRDTSINAAYMELGSLSSEDTAVYYCARGPHVGEVVPGLMAGTYYFPLDVWGQGTLVTVSS
VL: DIQMTQSPSTLSASIGDRVTITCRASQSISRWLAWYQQKPGKAPKLLIYKVSDLQSGVPSRFSGSGYGTEFTLTIGSLQPDDLATYYCQQYDTYPWTFGQGTKLEIK
B2: 270 (antibody, V domains shown)
VH: QVQLQESGPGLVKPSQTLSLTCTVSGASISRGLYYWSWIRQPAGKGLEWIGRIYTSGSINYNPSLKSRVTISVDTSKNQFSLRLSSVIATDTAVYYCVRDAPWGDFLTGYFGFYGMDVWGQGTLVTVSS
VL: DIVMTQSPSSLSASVGDRVTITCRASQSINTYLNWYQQKPGKAPKFLIYAASSLHSGVPSRFSGSGSGTDFTLTINSLQPDDFATYYCQQSFTTPYTFGQGTKLEIK
B3: 289 (antibody, V domains shown)
VH: QVQLVQSGAEVKKPGSSVKVSCKASGATFGSDTVTWVRQAPGQGLEWMGGIIPFFGEANYAQRFQGRVTITADKSTNTAYMELSSLRSEDTAVYFCARQINEMATFGEIHYYTYMDVWGQGTLVTVSS
VL: GSELTQDPAVSVALGQTVRITCQGDSLRNYYASWYQQKPRQAPVLVFYGKNNRPSGIPDRFSGSSSGNTASLTISGAQAEDEADYYCNSRDSSSNHLVFGGGTKLTVLS
B4: 223 (antibody, V domains shown)
VH: QVQLQQWGAGLLKPSETLSLTCAVYGGSFTTTYWNWIRQPPGKGLEWIGEVNYSGNANYNPSLKGRVAISVDTSKNQFSLRLNSVTAADTAIYYCTSRIRSHIAYSWKGDVWGKGTTVTVSS
VL: EIVMTQSPGTLSLSPGERATLSCRASQSVPRNYIGWFQQKPGQAPRLLIYGASSRAAGFPDRFSGSGSGTDFTLTITRLEPEDFAMYYCHQYDRLPYTFGQGTKLEIK
B5: 52 (antibody, V domains shown)
VH: QVQLQESGPGLVKPSETLSLNCTVSGGSISSYYWSWIRQPPGKGLEWIGYIYDSGRTKYNPSLKSRVTISLDTSKNQFSLKLSSVTAADTAVYYCASLGPFDKLWFGELLPGWFDPWGQGTLVTVSS
VL: EIVLTQSPATLSLSPGGRATLSCRASQSVHNYLAWYQQKSGQAPRLLIYDASNRATGIPARFSGSGSGTDFTLTISSLEPDDFAVYYCQHRSNWLTFGGGTKVEIK
B6: 49 (antibody, V domains shown)
VH: EVQLVESGGGLVQPGGSLRLSCAASGFTFSSYEINWVRQAPGRGLEWVSYISSSGRTIYYADSVKGRFTISRDNAKNSLYLQMNSLRAEDTAVYYCAREPYVDGILYGAGDSYFDYWGQGTLVTVSS
VL: DIQMTQSPSSLSASVGDRVTITCRASQSISNYLNWYQQKPGKAPKVLIYAASSLQSGVSSRFSGSGSGTDFTLTISSLQPEDFATYFCQQSYNTPPVTFGQGTRLEIK
B7: 87 (antibody, V domains shown)
VH: QVQLVQSGAEVKRPGASVKVSCKASGYTFTSYAISWVRQAPGQGLEWMGWISGNNGNTNYAQKLQGRLTMTTDTSTSTAYMELRSLRSDDTAVYYCARDADIVVVVGATGTYYYGMDVWGQGTLVTVSS
VL: DIVMTQSPSTLSASVGDRVTITCRASQSISSWLAWYQQKPGKAPKLLIYDASSLESGVPSRFSGSGSGTEFTLTISSLQPDDFATYYCQQYKSSLRTFGQGTQLEIK
B8: 63 (antibody, V domains shown)
VH: EVQLVESGGGLVKPGGSLRLSCAASGFTLNFYNMNWVRQAPGKGLEWVSSISSSSNYIYYADSVKGRFTISRDNARKSLYLQMNSLRAEDTAVYYCARDFVQLLIPQRDEWQGVHDYYGMDVWGQGTLVTVSS
VL: EIVLTQSPGTLSLSPGGRATLSCRASQSVSNSYLAWYQQKPGQAPRLLIYGASSRATGIPDRFSGSGSGTDFILTISRLEPEDFAVYYCQHYGSSQLTFGGGTKVEIK
B9: 62 (antibody, V domains shown)
VH: EVQLVESGGGLVQPGGSLRLSCAASGFTFSSYWMSWVRQAPGKGLEWVANIKQDGSAKYYVDSVKGRFTISRDNAKNSLYLQMNSLRAEDTAVYYCARDGLLGISDLLYPIYYFDYWGQGTLVTVSS
VL: DIVMTQSPSSLSASVGDRVTITCRASQNIGSYLNWYQQKPGKAPNLLMYAASSLQSGVPSRFSGSGSGTDFTLTITSLQPEDFATYYCQQSYSIPRTFGQGTQLEIK
B10: EBOV62 (antibody, V domains shown)
VH: B9 VH
VL: B9 VL
B11: EBOV49 (antibody, V domains shown)
VH: B6 VH
VL: B6 VL
B12: EBOV63 (antibody, V domains shown)
VH: B8 VH
VL: B8 VL
B13: EBOV52 (antibody, V domains shown)
VH: B5 VH
VL: B5 VL
B14: EBOV87 (antibody, V domains shown)
VH: B7 VH
VL: B7 VL

molecular target: T4, BDBV GP (BDBV (Bundibugyo ebolavirus)); assay: ELISA

| Binder | EC50 [µg/mL] |
| --- | --- |
| B1 | 0.053 |
| B2 | 0.154 |
| B3 | 0.02 |
| B4 | 0.022 |

molecular target: MARV GP; assay: ELISA

| Binder | EC50 [µg/mL] |
| --- | --- |
| B1 | > 10 |
| B2 | > 10 |
| B3 | > 10 |
| B4 | > 10 |

molecular target: BDBV sGP (BDBV (Bundibugyo ebolavirus)); assay: ELISA

| Binder | EC50 [µg/mL] |
| --- | --- |
| B1 | 0.012 |
| B2 | 0.025 |
| B3 | 0.006 |
| B4 | > 10 |

molecular target: T4, BDBV GP; assay: ELISA; remark: another data set of the same source

| Binder | EC50 [µg/mL] |
| --- | --- |
| B5 | 1.84 |
| B6 | > 10 |
| B7 | 1.39 |
| B8 | > 10 |
| B9 | 0.508 |

molecular target: MARV GP; assay: ELISA; remark: another data set of the same source

| Binder | EC50 [µg/mL] |
| --- | --- |
| B5 | > 10 |
| B6 | > 10 |
| B7 | > 10 |
| B8 | > 10 |
| B9 | > 10 |

Molecular target: T1, EBOV GP (recombinant, full-length …)
Assay: ELISA

| Binder | EC50 [µg/mL] |
| --- | --- |
| B10 | 0.228 |
| B11 | 0.262 |
| B12 | 0.283 |
| B13 | 0.712 |
| B14 | 0.724 |

Molecular target: T2, EBOV sGP
Assay: ELISA

| Binder | EC50 [µg/mL] |
| --- | --- |
| B10 | 0.051 |
| B11 | 0.061 |
| B12 | 0.038 |
| B13 | 0.082 |
| B14 | 0.051 |

Molecular target: T3, SUDV GP (recombinant)
Assay: ELISA

| Binder | EC50 [µg/mL] |
| --- | --- |
| B10 | > 10 |
| B11 | > 10 |
| B12 | > 10 |
| B13 | > 10 |
| B14 | 0.629 |

From patent publication US20200200749A1 (published 2020)
